From the supplement of paper PMC7877785
± gives the uncertainty stated by the source.

Assay: self-splicing fitness, log relative to wild type (ln ratio); higher = more splicing; Tetrahymena group I intron in knt gene, E. coli kanamycin selection, DiMSum; sequences stand for … in CUCUCU…GGAGGGAAAAGUUAUCAGGCAUGCACCUGGUAGCUAGUCUUUAAACCAAUAGAUUGCAUCGGUUUAAAAGGCAAGACCGUCAAAUUGCGGGAAAGGGGUCAACAGCCGUUCAGUACCAAGUCUCAGGGGAAACUUUGAGAUGGCCUUGCAAAGGGUAUGGUAAUAAGCUGACGGACAUGGUCCUAACCACGCAGCCAAGUCCUAAGUCAACAGAUCUUCUGUUGAUAUGGAUGCAGUUCACAGACUAAAUGUCGGUCGGGGAAGAUGUAUUCUUCUCAUAAGAUAUAGUCGGACCUCUCCUUAAUGGGAGCUAGCGGAUGAAGUGAUGCAACACUGGAGCCGCUGGGAACUAAUUUGUAUGCGAAAGUAUAUUGAUUAGUUUUGGAGUACUCGUGGUCG
Method in brief: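 Library with all eight P1ex-region intron nucleotides randomised, intron inside the knt kanamycin-resistance gene on pET-22b(+), in E. coli BL21(DE3). Cells grew overnight at 37°C or 30°C on LB agar with or without 25 μg/mL kanamycin (plus 100 μg/mL carbenicillin, 50 μM IPTG, 0.2% rhamnose), in six replicate transformations. Pooled colonies were amplicon-sequenced on Illumina HiSeq 2500. DiMSum fitness is the error-weighted combination of wild-type-normalised replicate fold changes, kanamycin versus none.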

CGGUAGCAAUAUUACGCUCC
self-splicing fitness (ln) (30 °C): -2.2 ± 0.38

GAGUAGCAAUAUUACGAGUA
self-splicing fitness (ln) (30 °C): -1.92 ± 0.16 | self-splicing fitness (ln) (37 °C): -1.28 ± 0.17

UUCAAGCAAUAUUACGGGCG
self-splicing fitness (ln) (30 °C): -0.977 ± 0.077 | self-splicing fitness (ln) (37 °C): -0.629 ± 0.1

GACCAGCAAUAUUACGACGC
self-splicing fitness (ln) (30 °C): 0.184 ± 0.074 | self-splicing fitness (ln) (37 °C): -0.35 ± 0.085

ACCAAGCAAUAUUACGUCUA
self-splicing fitness (ln) (30 °C): -1.29 ± 0.11 | self-splicing fitness (ln) (37 °C): -0.982 ± 0.1

CAACAGCAAUAUUACGACCA
self-splicing fitness (ln) (30 °C): -1.66 ± 0.099 | self-splicing fitness (ln) (37 °C): -0.585 ± 0.097

CCUUAGCAAUAUUACGAAUA
self-splicing fitness (ln) (30 °C): -2.52 ± 0.27 | self-splicing fitness (ln) (37 °C): -2.21 ± 0.5

GAUGAGCAAUAUUACGUUUU
self-splicing fitness (ln) (30 °C): -3.82 ± 0.22 | self-splicing fitness (ln) (37 °C): -2.72 ± 0.2

GUCCAGCAAUAUUACGGUUG
self-splicing fitness (ln) (30 °C): -1 ± 0.067 | self-splicing fitness (ln) (37 °C): -0.214 ± 0.091

GUACAGCAAUAUUACGUUAC
self-splicing fitness (ln) (30 °C): -3.89 ± 0.36 | self-splicing fitness (ln) (37 °C): -2.27 ± 0.28

CGUUAGCAAUAUUACGGCAA
self-splicing fitness (ln) (30 °C): -2.91 ± 0.2 | self-splicing fitness (ln) (37 °C): -1.1 ± 0.15

CGUAAGCAAUAUUACGCUCG
self-splicing fitness (ln) (30 °C): -1.8 ± 0.17 | self-splicing fitness (ln) (37 °C): -0.572 ± 0.23

UUUAAGCAAUAUUACGGCAA
self-splicing fitness (ln) (30 °C): -0.171 ± 0.093 | self-splicing fitness (ln) (37 °C): 0.00377 ± 0.11

UUACAGCAAUAUUACGCGUC
self-splicing fitness (ln) (30 °C): -3.64 ± 0.2 | self-splicing fitness (ln) (37 °C): -1.32 ± 0.19

UACGAGCAAUAUUACGUGUG
self-splicing fitness (ln) (30 °C): -2.43 ± 0.15 | self-splicing fitness (ln) (37 °C): -1.82 ± 0.12

ACAGAGCAAUAUUACGAUAU
self-splicing fitness (ln) (30 °C): -3.55 ± 0.29 | self-splicing fitness (ln) (37 °C): -2.62 ± 0.32

GGUGAGCAAUAUUACGCUGC
self-splicing fitness (ln) (30 °C): -3.91 ± 0.28 | self-splicing fitness (ln) (37 °C): -2.65 ± 0.32

CCUCAGCAAUAUUACGUGUU
self-splicing fitness (ln) (30 °C): -4.12 ± 0.2 | self-splicing fitness (ln) (37 °C): -3.41 ± 0.25

ACCCAGCAAUAUUACGACUA
self-splicing fitness (ln) (30 °C): -0.803 ± 0.082 | self-splicing fitness (ln) (37 °C): -0.765 ± 0.086

CAGGAGCAAUAUUACGUAAG
self-splicing fitness (ln) (30 °C): -0.111 ± 0.097 | self-splicing fitness (ln) (37 °C): 0.23 ± 0.12

CACAAGCAAUAUUACGUUGG
self-splicing fitness (ln) (30 °C): -2.5 ± 0.091 | self-splicing fitness (ln) (37 °C): -1.76 ± 0.099

CCGGAGCAAUAUUACGGGGC
self-splicing fitness (ln) (30 °C): -3.78 ± 0.26 | self-splicing fitness (ln) (37 °C): -2.55 ± 0.44

AACCAGCAAUAUUACGAAGA
self-splicing fitness (ln) (30 °C): -2.02 ± 0.081 | self-splicing fitness (ln) (37 °C): -0.639 ± 0.082

UUUAAGCAAUAUUACGUCAA
self-splicing fitness (ln) (30 °C): -1.43 ± 0.16 | self-splicing fitness (ln) (37 °C): -0.273 ± 0.14

UGCGAGCAAUAUUACGGGAA
self-splicing fitness (ln) (30 °C): -3.87 ± 0.38 | self-splicing fitness (ln) (37 °C): -2.5 ± 0.24

CACAAGCAAUAUUACGCCUU
self-splicing fitness (ln) (30 °C): -3.72 ± 0.18 | self-splicing fitness (ln) (37 °C): -1.34 ± 0.14

CCCCAGCAAUAUUACGGAAC
self-splicing fitness (ln) (30 °C): -3.83 ± 0.26 | self-splicing fitness (ln) (37 °C): -3.1 ± 0.22

UCGUAGCAAUAUUACGGUUG
self-splicing fitness (ln) (30 °C): -2.14 ± 0.12 | self-splicing fitness (ln) (37 °C): -1.05 ± 0.15

AGCGAGCAAUAUUACGCAGC
self-splicing fitness (ln) (30 °C): -4.05 ± 0.46

UGCAAGCAAUAUUACGAUAG
self-splicing fitness (ln) (30 °C): -1.09 ± 0.067 | self-splicing fitness (ln) (37 °C): -0.0803 ± 0.085

CUGAAGCAAUAUUACGAAUA
self-splicing fitness (ln) (30 °C): -2.41 ± 0.48 | self-splicing fitness (ln) (37 °C): -2.22 ± 0.43

UUCAAGCAAUAUUACGUGGG
self-splicing fitness (ln) (30 °C): -3.07 ± 0.11 | self-splicing fitness (ln) (37 °C): -1.97 ± 0.13

CAAUAGCAAUAUUACGCUAA
self-splicing fitness (ln) (30 °C): -3.58 ± 0.43 | self-splicing fitness (ln) (37 °C): -2.05 ± 0.2

GCCAAGCAAUAUUACGUACA
self-splicing fitness (ln) (30 °C): -2.65 ± 0.16 | self-splicing fitness (ln) (37 °C): -1.65 ± 0.11

ACGAAGCAAUAUUACGGUGG
self-splicing fitness (ln) (30 °C): -3.93 ± 0.15 | self-splicing fitness (ln) (37 °C): -2.56 ± 0.23

CAAGAGCAAUAUUACGUAUA
self-splicing fitness (ln) (30 °C): -4.95 ± 0.3 | self-splicing fitness (ln) (37 °C): -1.92 ± 0.15

AUUGAGCAAUAUUACGUUCC
self-splicing fitness (ln) (30 °C): -1.94 ± 0.23 | self-splicing fitness (ln) (37 °C): -2.1 ± 0.3

UGUCAGCAAUAUUACGCUGG
self-splicing fitness (ln) (30 °C): -4.05 ± 0.39 | self-splicing fitness (ln) (37 °C): -2.19 ± 0.34

UUGGAGCAAUAUUACGCGGG
self-splicing fitness (ln) (30 °C): -3.26 ± 0.19 | self-splicing fitness (ln) (37 °C): -0.733 ± 0.15

CGAAAGCAAUAUUACGGGGU
self-splicing fitness (ln) (30 °C): -3.65 ± 0.21 | self-splicing fitness (ln) (37 °C): -1.94 ± 0.18

UAAUAGCAAUAUUACGUUAC
self-splicing fitness (ln) (30 °C): -4.32 ± 0.34 | self-splicing fitness (ln) (37 °C): -2.2 ± 0.23

UUGCAGCAAUAUUACGAGCA
self-splicing fitness (ln) (30 °C): -2.35 ± 0.17 | self-splicing fitness (ln) (37 °C): -0.7 ± 0.11
